In assay [1] the target is Mycobacterium smegmatis MSMEG_6251 soluble domain (msTiME-SD) (M. smegmatis mc^2155). The assay is described as follows: crystal structure.
Assay [2] concerns the target Mycobacterium tuberculosis Rv3705c soluble domain (mtTiME-SD) (M. tuberculosis H37Rv). The assay is described as follows: SEC-MALS. On the technique in general: Size exclusion chromatography separates by hydrodynamic size, large species first.

The text below walks through data of article PMC8378821.

For orientation: stoichiometry N means a count of units in the complex or per binding partner.

Substance “Mycobacterium smegmatis MSMEG_6251 soluble domain (msTiME-SD) (domain or fragment)” yielded a stoichiometry N in assay [1] of 8.

“Mycobacterium tuberculosis Rv3705c soluble domain (mtTiME-SD) (domain or fragment)” returned a stoichiometry N in assay [2] of 16.
